How the values were obtained:
[1] = In vivo localization of PLCs/HGF-ePLCs in fibrotic mice; parameters: species or system Immune-deficient mice (NSG); conditions: 30 mins after treatment
Method: Immune-deficient mice (NSG) were dosed with 0.25 mL/kg of carbon tetrachloride 3 times per week for 2 weeks to initiate liver fibrosis. Control mice were treated with similar volumes of corn oil. On D15, fibrotic mice were treated with the following: Plasmalyte, recombinant HGF (Peprotech Cat #100-39H-1 mg), PLCs that had been generated the previous day and diluted in plasmalyte, or HGF-ePLCs that had been generated the previous day and diluted in plasmalyte. Treatments were allowed to circulate for 30 mins and then mice were sacrificed, exsanguinated, and livers were prepared and frozen for analysis.
FIG. 32B examines circulating PLCs in blood. Blood from PLC or ePLC treatment mice was analyzed via flow cytometry with a human-specific CD61 antibody (Miltenyi Cat #130-110-754) as an indicator of circulating PLCs/ePLCs. […] In FIG. 32C, fluorescence staining of livers removed from treated fibrotic mice for HGF were performed. Livers were embedded in OCT, sectioned, and mounted on slides. Sections were then fixed in ice-cold Acetone for 10 mins and dried for an additional 20 mins. […] The results shown in FIG. 32D show fluorescence staining of livers removed from treated fibrotic mice for CD61. […]

liver fibrosis = assay: Carbon tetrachloride liver fibrosis mouse model (hydroxyproline analysis); assay type: in vivo; conditions: D30, versus carbon tetrachloride mice without intervention
Method: In order to determine if PLCs have a beneficial effect in treating liver fibrosis, fibrosis was initiated with 3× weekly application of 0.1 mL/kg injection of carbon tetrachloride diluted in corn oil for 2 weeks; control mice received corn oil itself for those 2 weeks. Carbon tetrachloride applications continued throughout the next step. Mice that received carbon tetrachloride were separated into 3 cohorts at the two-week mark: • 1. Plasmalyte application on D15, 22, 29 (Carbon Tet mice) • 2. rHGF diluted to 30 ug/mL in plasmalyte and dosed daily at 0.3 mg/kg (Peprotech HGF 100-39H-1 mg) • 3. PLC applications of ˜3e10 Platelet Equivalency Units (PEUs)/kg per mouse on D15, 22, 29. D15 was 5e10, D22 was 3e10, D29 was 5e10.
All mice were sacrificed on D30, livers were excised, and fresh frozen for ˜2-3 hours. Hydroxyproline analysis was done using a hydroxyproline kit (Abcam #ab222941).
Briefly, livers were trimmed, weighed, and the homogenized in DI water at ˜10 uL water/mg of liver with a Dounce homogenizer. The equivalent of 10 mg (˜100 uL) were removed and digested in equal volume 10N NaOH for 2 hours at 120° C. Samples were cooled and quenched with 100 uL 10N HCl, vortexed, and then spun in a centrifuge for 5 mins at 10,000×g. […] Samples were then processed as the manufacturer directed and analyzed with a plate reader. […]

HGF: recombinant HGF (Peprotech HGF 100-39H-1 mg)
HGF signal in liver (fluorescence staining) [1]: increase HGF signal
collagen per weight of liver (liver fibrosis): apparent reduction of collagen per weight of liver

Reference: patent US20220143095A1, “NOVEL ANUCLEATED CELLS AND USES THEREOF” (Platelet Biogenesis, Inc., priority 2020, published 2022)
